These results are taken from patent US20240101674A1 (OTTIMO PHARMA, published 2024).

Experiment [1] addresses T1, human PD1 human Fc tagged recombinant protein (human, UniProt Q15116 25-170).
T1 construct: also called human PD1-Fc; hu PD1; not shown: human Fc tag
In words: periprep Fab direct binding ELISA (FIG. 1). (ELISA stands for enzyme-linked immunosorbent assay.)

Experiment [2] addresses T2, cynomolgus monkey PD1 human Fc tagged recombinant protein (cynomolgus monkey, UniProt Q15116 25-170 (human entry), limits assumed).
T2 construct: also called cyno PD1-Fc; cyno PD1; not shown: human Fc tag
T2 chain: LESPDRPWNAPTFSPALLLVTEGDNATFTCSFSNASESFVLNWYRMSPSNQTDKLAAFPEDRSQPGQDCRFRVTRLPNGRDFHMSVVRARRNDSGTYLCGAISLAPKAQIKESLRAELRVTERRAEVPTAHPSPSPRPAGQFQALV
In words: periprep Fab direct binding ELISA (FIG. 1).

T1 sequence (Q15116 25-170 limits assumed): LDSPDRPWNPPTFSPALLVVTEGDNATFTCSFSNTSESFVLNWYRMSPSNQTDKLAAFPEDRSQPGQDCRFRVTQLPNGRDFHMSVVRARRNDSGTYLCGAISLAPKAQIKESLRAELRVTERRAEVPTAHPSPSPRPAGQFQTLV

B1: hMAb005 Fab (Fab, V domains shown)
VH: EVQLVESGGGLVQPGGSLRLSCAASGFTFSSYMMSWVRQAPGKGLEWVATISGGGANTYYPDSVKGRFTISRDNAKNSLYLQMNSLRAEDTAVYYCARQLYYFDYWGQGTTVTVSS
VL: DIQMTQSPSSLSASVGDRVTITCLASQTIGTWLTWYQQKPGKAPKLLIYTATSLADGVPSRFSGSGSGTDFTLTISSLQPEDFATYYCQQVYSIPWTFGGGTKVEIK
notes: Human IgG1-kappa Fab, periplasmically expressed in E. coli, detected via c-myc; also called hMAb005 v-domains expressed as human IgG1 Fab; positive control hMAb005 Fab
Turning to B1, the binding result in experiment [1] and in experiment [2] was “binds” each time.
